Patent US20190077864A1 (ONCOMED PHARMACEUTICALS, published 2019)
Values belong to the molecule of their own block, whether it stands above or below them.

How the values were obtained:
[1] = biological target: murine TIGIT (mTIGIT) on B3Z T-cell hybridoma cells (mouse) (UniProt P86176); assay: cell-based or functional assay
[2] = biological target: murine TIGIT (mTIGIT) tagged with FLAG and GFP, on cells (mouse) (UniProt P86176); assay: cell-based or functional assay
hPVR-rbFc fusion protein = biological target: T1, hPVR-rbFc fusion protein (human, UniProt P15151 21-343); assay: flow cytometry of hPVR-rbFc on HEK-293T cells with hTIGIT-CD4TM-GFP, detected with anti-rabbit Fc-PE, no antibody added
T1 construct: extracellular domain; Expressed in CHO cells, purified on protein A; also called human PVR-rabbit Fc fusion protein; not shown: rabbit Fc region
T1 sequence (looked up): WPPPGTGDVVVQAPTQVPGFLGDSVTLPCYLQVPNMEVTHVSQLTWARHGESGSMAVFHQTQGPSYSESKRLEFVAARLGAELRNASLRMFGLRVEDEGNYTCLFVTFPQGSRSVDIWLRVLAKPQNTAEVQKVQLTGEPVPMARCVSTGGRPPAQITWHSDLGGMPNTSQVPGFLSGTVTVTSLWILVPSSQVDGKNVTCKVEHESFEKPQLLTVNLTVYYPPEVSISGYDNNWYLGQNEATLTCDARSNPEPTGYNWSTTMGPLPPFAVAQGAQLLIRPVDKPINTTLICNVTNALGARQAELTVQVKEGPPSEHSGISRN
Experimental: FIGS. 19A and 19B. FACS analysis of anti-TIGIT antibody blocking binding of human TIGIT to PVR. […] Transfected cells were incubated with soluble human PVR-Fc fusion protein in the presence of antibodies generated to TIGIT (313R19, 313M26, or 313M32) at concentrations of 10, 2, or 0.4 μg/ml or no antibody and analyzed by flow cytometry. Specific binding is indicated by the presence of a diagonal signal within a FACS plot. […] Specific binding is indicated by the presence of a diagonal signal within a FACS plot.
After 16 hours, transfected cells were suspended in ice cold HBSS containing 2% FBS and heparin and incubated on ice with 0.5 μg/ml hPVR-rbFc fusion protein in the presence of anti-TIGIT antibodies 313R19, 313M26, or 313M32 for 60 minutes. Antibody 313R19 is a humanized version of a rabbit anti-TIGIT antibody. 313R19 binds mouse and human TIGIT. The antibodies were tested at concentrations of 10, 2, and 0.4 ug/ml. Cells were incubated without antibody or without hPVR-rbFc as controls. A second incubation with 100 μl PE-conjugated anti-rabbit Fc secondary antibody was performed to detect cells bound by the hPVR-rbFc fusion protein. The cells were analyzed on a FACSCanto instrument (BD Biosciences) and the data was processed using FlowJo software.

[3] = biological target: T2, mouse TIGIT ECD-CD4TM-GFP on HEK-293T cells (mouse, UniProt P86176 29-148); assay: flow cytometry of rabbit antibody supernatant on HEK-293T cells transiently transfected with mouse TIGIT ECD-CD4TM-GFP; antibody signal against GFP
T2 construct: The legend names the construct as mouse TIGIT ECD; also called mouse TIGIT-CD4TM-GFP; mTIGIT-CD4TM-GFP; not shown: transmembrane domain of CD4 (CD4TM); GFP (green fluorescent protein)
T2 sequence: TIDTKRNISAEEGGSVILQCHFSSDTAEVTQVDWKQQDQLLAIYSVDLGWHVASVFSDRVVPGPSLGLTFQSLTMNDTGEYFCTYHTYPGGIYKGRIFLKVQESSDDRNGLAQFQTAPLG

[4] = biological target: T2, mouse TIGIT ECD-CD4TM-GFP on HEK-293T …; assay: flow cytometry, 1 µg/ml antibody on transiently transfected HEK-293T cells, PE-conjugated anti-Fc secondary, signal against TIGIT-GFP
Experimental: The TIGIT variants were evaluated by FACS with anti-hTIGIT antibodies. […] After 16 hours, transfected cells were suspended in ice cold HBSS containing 2% FBS and incubated on ice with 1 μg/ml anti-hTIGIT antibodies 313R12, 313M32, or 313M34 for 30 minutes. 313M34 is an anti-hTIGIT antibody that was generated based upon the amino acid sequences of the 10A7 antibody described in U.S. Publication 2009/0258013. The 10A7 antibody is an anti-mouse TIGIT antibody that binds both mouse TIGIT and human TIGIT. A second incubation with 50 μl PE-conjugated anti-Fc secondary antibody was performed to detect cells bound by the antibodies. The cells were analyzed on a FACSCanto instrument (BD Biosciences) and the data was processed using FlowJo software.

human TIGIT = biological target: T3, human TIGIT (human, UniProt Q495A1 22-141, limits assumed); assay: Biacore, preliminary; format not stated
T3 construct: also called hTIGIT
T3 sequence: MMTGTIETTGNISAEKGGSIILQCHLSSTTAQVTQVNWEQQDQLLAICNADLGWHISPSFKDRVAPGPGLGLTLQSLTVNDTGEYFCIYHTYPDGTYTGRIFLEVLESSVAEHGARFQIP

ratio of IL-2 secretion in response to mPVR-expressing tumor cells to that in response to mPVR-negative tumor cells (ELISA) [1]: < 1
Molecule: murine PVR (mPVR) on cells (ligand)
ratio of NK-92 cytotoxicity against 721.221-mPVR cells to that against parental 721.221 cells (calcein release) [2]: < 1

binding result (hPVR-rbFc fusion protein): binds
B1: hTIGIT-CD4TM-GFP on HEK-293T cells (receptor)
chain: T3 sequence
notes: Cell surface fusion protein, transiently expressed; also called human TIGIT ECD-CD4TM-GFP; FLAG-hTIGIT-CD4TM-GFP; not shown: transmembrane domain of CD4 (CD4TM); C-terminal GFP protein tag

binding result [3]: binds
B2: anti-TIGIT antibody 313Rb1 (antibody, V domains shown)
VH: QVQLESEGGLFKPTDTLTLTCTVSGSSLSSSYMSWVRQAPGKGLEWIGIIGSNGNTYYANWAKGRFTISKTSTTVELKITSPTTEDTATYFCARGGYRTSGMDPWGPGTLVTVSS
VL: DIVMTQTPASVEVAVGGTVTIKCQASQSISSYLNWYQQKPGQPPKLLIYDALKLASGVPSRFSGSGSGTEYTLTISGVESADAATYYCQQEHSVGNVDNVFGGGTEVVVKR
notes: Rabbit antibody raised against the extracellular domain of mouse TIGIT

binding result [4]: binds
B3: anti-TIGIT antibody 313R12 (antibody, mouse IgG2a, kappa, V domains shown)
VH: B2 VH
VL: B2 VL
notes: Chimeric antibody: variable regions of 313Rb1 in a mouse IgG2a format

Kd (human TIGIT): 2 nM
B4: anti-TIGIT antibody 313R19 (antibody, human IgG1, kappa, V domains shown)
VH: QVQLQESGPGLVKPSETLSLTCTVSGFSLSSSYMSWIRQPPGKGLEWIGIIGSNGNTYYANWAKGRVTISKSSNQVSLKLSSVTAADTAVYYCARGGYRTSGMDPWGQGTLVTVSS
VL: DIQMTQSPSSLSASVGDRVTITCQASQNIYSDLAWYQQKPGKAPKLLIYRASTLASGVPSRFSGSGSGTDFTLTISSLQPEDFATYYCQQEHLVAWIYNVFGQGTKVEIKR
notes: Humanized rabbit antibody, human IgG1
